Source: patent publication US6348573B1, “Compositions and methods for identifying apoptosis signaling pathway inhibitors and activators” (The Regents of the University of Michigan, priority 1998, dated 2002)

Target: T1, FADD (Fas-associated death domain protein), expressed in 293T cells (human, UniProt Q13158 1-208)
T1 construct: also called MORT-1; pcDNA3-FADD-AU1
T1 sequence (looked up): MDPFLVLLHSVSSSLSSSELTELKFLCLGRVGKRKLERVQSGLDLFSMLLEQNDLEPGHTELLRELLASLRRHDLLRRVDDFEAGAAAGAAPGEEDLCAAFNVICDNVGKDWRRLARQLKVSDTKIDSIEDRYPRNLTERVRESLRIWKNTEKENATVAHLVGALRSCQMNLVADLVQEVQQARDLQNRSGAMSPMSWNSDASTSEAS
Assay: co-immunoprecipitation from co-transfected 293T cells (data not shown)

B1: human ARC (Apoptosis Repressor with CARD domain), C-terminally Flag- or HA-tagged (other)
chain: MGNAQERPSETIDRERKRLVETLQADSGLLLDALLARGVLTGPEYEALDALPDAERRVRRLLLLVQGKGEAACQELLRCAQRTAGAPDPAWDWQHVGPGYRDRSYDPPCPGHWTPEAPGSGTTCPGLPRASDPDEAGGPEGSEAVQSGTPEEPEPELEAEASKEAEPEPEPEPELEPEAEAEPEPELEPEPDPEPEPDFEERDESEDS
notes: Entire open reading frame expressed in 293T cells; The two tagged constructs are merged here; also called ARC-Flag; ARC-HA; not shown: C-terminal FLAG or HA tag
  binding result: no binding
